Test results reported in patent US11827699 (dated 2023).
Positions count from the first letter of the chain named.

T1: human FcγRIIa R131 (human, UniProt P12318)
T1 chain: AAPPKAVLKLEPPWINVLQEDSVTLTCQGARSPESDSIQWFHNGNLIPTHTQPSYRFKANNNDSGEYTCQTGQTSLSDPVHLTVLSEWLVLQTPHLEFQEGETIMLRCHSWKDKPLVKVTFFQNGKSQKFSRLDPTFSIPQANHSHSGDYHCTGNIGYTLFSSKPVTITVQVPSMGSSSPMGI

T2: human FcγRIa (human, UniProt P12314)
T2 chain: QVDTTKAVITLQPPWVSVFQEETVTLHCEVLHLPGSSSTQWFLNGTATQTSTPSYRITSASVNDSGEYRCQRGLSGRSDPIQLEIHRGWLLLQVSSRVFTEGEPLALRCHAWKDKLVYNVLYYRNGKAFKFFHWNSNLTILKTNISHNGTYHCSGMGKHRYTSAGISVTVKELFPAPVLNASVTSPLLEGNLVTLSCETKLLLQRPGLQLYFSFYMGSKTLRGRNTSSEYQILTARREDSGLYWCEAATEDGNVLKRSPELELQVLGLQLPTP

T3: human FcγRIIb (human, UniProt P31994)
T3 chain: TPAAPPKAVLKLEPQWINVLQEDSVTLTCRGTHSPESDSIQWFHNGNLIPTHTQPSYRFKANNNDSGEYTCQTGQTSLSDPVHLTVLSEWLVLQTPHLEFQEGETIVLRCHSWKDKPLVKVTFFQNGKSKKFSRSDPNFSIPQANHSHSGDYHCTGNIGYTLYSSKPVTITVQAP

T4: human FcγRIIa H131 (human, UniProt P12318)
T4 chain: T1 chain with R132H

B1: IL6R-BP498 (antibody)
chain 1: QVQLQESGPGLVKPSETLSLTCAVSGHSISHDHAWSWVRQPPGEGLEWIGFISYSGITNYNPSLQGRVTISRDNSKNTLYLQMNSLRAEDTAVYYCARSLARTTAMDYWGEGTLVTVSSASTKGPSVFPLAPSSKSTSGGTAALGCLVKDYFPEPVTVSWNSGALTSGVHTFPAVLQSSGLYSLSSVVTVPSSSLGTQTYICNVNHKPSNTKVDKKVEPKSCDKTHTCPPCPAPDLLGDDSVFLFPPKPKDTLMISRTPEVTCVVIDVAEEDGEVKFNWYVDGVEVHNAKTKPREEQYNSTYRVVSVLTVLHQDWLNGKEYKCKVSNKALPRPIEKTISKAKGQPREPQVYTLPPSRDELTKNQVSLTCLVKGFYPSDIAVEWESNGQPENNYKTTPLVLDSDGSFFLYSKLTVDKSRWQQGNVFSCSVMHEALHNHYTQESLSLSP
chain 2: not shown
B2: IL6R-BP508 (antibody)
chain 1: B1 chain 1 with E274P, Y298D, R332A, L398P
chain 2: not shown
B3: IL6R-BP509 (antibody)
chain 1: B1 chain 1 with E274D, Y298D, R332A, L398P
chain 2: not shown
B4: IL6R-BP500 (antibody)
chain 1: B1 chain 1 with D235E, Y298D, R332A, L398P
chain 2: not shown
B5: IL6R-BP492 (antibody)
chain 1: B1 chain 1 with D235E, D239G, R332A, L398P
chain 2: not shown
B6: IL6R-BP494 (antibody)
chain 1: B1 chain 1 with D235E, I266V, Y298D, L398P
chain 2: not shown
B7: IL6R-BP496 (antibody)
chain 1: B1 chain 1 with Y298D, R332A, L398P
chain 2: not shown
B8: IL6R-BP488 (antibody)
chain 1: B1 chain 1 with Y298D, L398P
chain 2: not shown
B9: IL6R-BP497 (antibody)
chain 1: B1 chain 1 with A329G, L398P
chain 2: not shown
B10: IL6R-BP502 (antibody)
chain 1: B1 chain 1 with Y298D, A329G, L398P
chain 2: not shown
B11: IL6R-BP487 (antibody)
chain 1: B1 chain 1 with L398M
chain 2: not shown
B12: IL6R-BP503 (antibody)
chain 1: B1 chain 1 with Y298D, A329G, L398M
chain 2: not shown
B13: IL6R-BP269 (antibody)
chain 1: B1 chain 1 with D235E, I266V, A269S, Y298D, R332A, L398P
chain 2: not shown
B14: IL6R-BP150 (antibody)
chain 1: B1 chain 1 with D235E, L236Y, I266V, A269S, E270H, G273P, K328A, R332K, L398P
chain 2: not shown
B15: IL6R-BP152 (antibody)
chain 1: B1 chain 1 with L236Y, I266V, A269S, E270H, G273P, Y298D, K328A, R332K, L398P
chain 2: not shown
B16: IL6R-BP151 (antibody)
chain 1: B1 chain 1 with L236Y, I266V, A269S, E270H, G273P, K328A, R332K, L398P
chain 2: not shown
B17: IL6R-BP474 (antibody)
chain 1: B1 chain 1 with I266V, A269S, E270D, Y298D, R332S, P333S, L398P
chain 2: not shown
B18: IL6R-BP471 (antibody)
chain 1: B1 chain 1 with I266V, A269S, E270D, Y298D, P333S, L398P
chain 2: not shown
B19: IL6R-BP475 (antibody)
chain 1: B1 chain 1 with I266V, A269S, E270D, Y298D, A329G, R332S, L398P
chain 2: not shown
B20: IL6R-BP228 (antibody)
chain 1: B1 chain 1 with D235E, L236Y, I266V, A269Q, E270D, K328D, L398P
chain 2: not shown
B21: IL6R-BP237 (antibody)
chain 1: B1 chain 1 with L236Y, I266V, A269Q, E270D, Y298D, K328A, R332K, L398P
chain 2: not shown
B22: IL6R-BP239 (antibody)
chain 1: B1 chain 1 with L236Y, I266V, A269Q, E270D, Y298D, K328A, L398P
chain 2: not shown
B23: IL6R-BP243 (antibody)
chain 1: B1 chain 1 with L236Y, I266V, A269S, E270D, L398P
chain 2: not shown
B24: IL6R-BP220 (antibody)
chain 1: B1 chain 1 with I266V, A269S, E270D, Y298D, R332K, L398P
chain 2: not shown
B25: IL6R-BP233 (antibody)
chain 1: B1 chain 1 with D235E, L236Y, I266V, A269S, E270H, R332K, L398P
chain 2: not shown
B26: IL6R-BP246 (antibody)
chain 1: B1 chain 1 with I266V, A269Q, E270D, Y298D, K328A, L398P
chain 2: not shown
B27: IL6R-BP249 (antibody)
chain 1: B1 chain 1 with L236Y, I266V, A269S, E270D, Y298D, L398P
chain 2: not shown
B28: IL6R-BP348 (antibody)
chain 1: B1 chain 1 with I266V, R332A, L398P
chain 2: not shown
B29: IL6R-BP514 (antibody)
chain 1: B1 chain 1 with I266V, A269S, E274F, R332A, L398P
chain 2: not shown
B30: IL6R-BP520 (antibody)
chain 1: B1 chain 1 with I266V, A269S, E274M, R332A, L398P
chain 2: not shown
B31: IL6R-BP517 (antibody)
chain 1: B1 chain 1 with I266V, A269S, E274I, R332A, L398P
chain 2: not shown

Target: human FcγRIIIa V158 (human, UniProt P08637)
Sequence (P08637 17-208 F176V): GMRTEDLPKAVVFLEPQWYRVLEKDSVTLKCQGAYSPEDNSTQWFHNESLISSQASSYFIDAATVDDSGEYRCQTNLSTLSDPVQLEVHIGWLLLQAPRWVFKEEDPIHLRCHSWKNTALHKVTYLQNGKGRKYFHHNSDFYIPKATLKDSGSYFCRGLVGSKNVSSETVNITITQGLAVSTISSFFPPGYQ
Test: SPR

Kd | Binder
10000 nM | B1
61000 nM | B2
23000 nM | B3
39000 nM | B4
36000 nM | B5
40000 nM | B6
30000 nM | B7
20000 nM | B8
28000 nM | B9
24000 nM | B10
10000 nM | B11
21000 nM | B12
140000 nM | B13

Target: T1, human FcγRIIa R131
Test: SPR

Kd | Binder
550 nM | B14
810 nM | B15
670 nM | B16

Target: T1, human FcγRIIa R131
Test: SPR
Remark: another data set of the same source

Kd | Binder
3000 nM | B17
800 nM | B18
1000 nM | B19

Target: T2, human FcγRIa
Test: SPR

Kd | Binder
1.3 nM | B1
1.4 nM | B2
1.1 nM | B3
2.3 nM | B4
0.79 nM | B5
3.9 nM | B6
1.2 nM | B7
2.2 nM | B8
2.1 nM | B9
2.1 nM | B10
1.2 nM | B11
1.2 nM | B12
14 nM | B13

Target: T3, human FcγRIIb
Test: SPR

Kd | Binder
1.7 nM | B1
21 nM | B2
18 nM | B3
24 nM | B4
24 nM | B5
6.6 nM | B6
18 nM | B7
1.9 nM | B8
4.1 nM | B9
3.7 nM | B10
1.2 nM | B11
1.7 nM | B12
110 nM | B13

Target: T1, human FcγRIIa R131
Test: SPR
Remark: another data set of the same source

Kd | Binder
51 nM | B1
540 nM | B2
520 nM | B3
720 nM | B4
920 nM | B5
250 nM | B6
470 nM | B7
74 nM | B8
85 nM | B9
110 nM | B10
39 nM | B11
57 nM | B12
2200 nM | B13

Target: T4, human FcγRIIa H131
Test: SPR

Kd | Binder
930 nM | B1
20000 nM | B2
7900 nM | B3
25000 nM | B4
16000 nM | B5
5400 nM | B6
3700 nM | B7
1600 nM | B8
960 nM | B9
1300 nM | B10
840 nM | B11
860 nM | B12
72000 nM | B13

Target: T3, human FcγRIIb
Test: SPR
Remark: another data set of the same source

Kd | Binder
40 nM | B20
100 nM | B21
60 nM | B22

Target: T2, human FcγRIa
Test: SPR
Remark: another data set of the same source

Kd | Binder
320 nM | B14
73 nM | B15
84 nM | B16

Target: T3, human FcγRIIb
Test: SPR
Remark: another data set of the same source

Kd | Binder
31 nM | B14
41 nM | B15
40 nM | B16

Target: T2, human FcγRIa
Test: SPR
Remark: another data set of the same source

Kd | Binder
3 nM | B23
20 nM | B24
70 nM | B25
8 nM | B26
7 nM | B27

Target: T1, human FcγRIIa R131
Test: SPR
Remark: another data set of the same source

Kd | Binder
700 nM | B28
30000 nM | B29
3000 nM | B30
2100 nM | B31
